# Results published in patent WO2013091903A1 (dated 2013).
# T1: Peptide 1415 (entire second extracellular loop of human ORAI1) (human)
# T1 peptide: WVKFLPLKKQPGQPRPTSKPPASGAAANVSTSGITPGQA
# T2: Peptide 1455 (part of the second extracellular loop of human ORAI1) (human)
# T2 peptide: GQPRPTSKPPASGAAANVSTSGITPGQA
# T3: Peptide 1454 (part of the second extracellular loop of human ORAI1) (human)
# T3 peptide: PASGAAANVSTSGITPGQA
# Legend:
# [1] = biological target: human ORAI1 (CRAC channel membrane protein 1) (human, UniProt Q96D31 1-301); test: cell-based or functional assay
# [2] = biological target: T1, Peptide 1415 (entire second …); test: direct peptide ELISA, peptide coated at 1 ug/ml; (+) indicates binding was detected
# [3] = biological target: T2, Peptide 1455 (part of the second …); test: as above
# [4] = biological target: T3, Peptide 1454 (part of the second …); test: direct peptide ELISA, peptide coated at 1 ug/ml; (-) indicates binding could not be detected
# human ORAI1 (CRAC channel membrane protein 1), sequence (Q96D31 whole entry, form in doubt): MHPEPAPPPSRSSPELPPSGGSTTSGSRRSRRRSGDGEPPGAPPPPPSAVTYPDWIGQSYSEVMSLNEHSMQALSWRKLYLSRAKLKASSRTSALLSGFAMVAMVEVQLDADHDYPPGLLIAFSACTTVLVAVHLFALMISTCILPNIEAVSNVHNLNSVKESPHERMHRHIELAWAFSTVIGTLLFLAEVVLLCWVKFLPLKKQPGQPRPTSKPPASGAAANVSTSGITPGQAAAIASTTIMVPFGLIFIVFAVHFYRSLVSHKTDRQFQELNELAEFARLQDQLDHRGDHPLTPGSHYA
"IC50 of inhibition of PBMC (T cell) proliferation, anti-CD3/CD28 stimulation [1]",binding result [2],binding result [3],binding result [4],Binder
1 µg/mL,,,,"anti-M-CRAC1415-10F8 A2B6C1 (antibody, IgG1, V domains shown) VH: QVQLQQSGAELVRPGSSVKISCKASGYAFRSYWMNWVKQRPGQGLEWIGHIYPGDGDTNYNGKFKGKATLTADKSSSTAYMQLSSLTSEDSAVYLCGRGGTTVVVDYWGQGTTLTVSS VL: DIVMSQSPSSLAVSAGEKVTMSCKSSQSLLNSRTRKNYLAWYQQKPGQSPKLLIYWASTRESGVPDRFTGSGSGTDFTLTISSVQAEDLAVYYCKQSYNLPWTFGGGTKLEIKR"
,binds,binds,no binding,"M-hCRAC1415-15F3A6 (antibody, IgG1, V domains shown, same variable domains as 17F6A2) VH: QVQLQQSGAELVRPGSSVKISCKASGYAFSSYWMNWVKQRPGQGLEWIGHIYPGDADTNYNGKFKGKATLTADKSSSTAYMHLSSLTSEDSAVYFCSRQLGFRYAMDYWGQGTSVTVSS VL: DIVMSQSPSSLAVSAGEKVTMSCKSSQSLLNSRTRKNYLAWYQQKPGQSPKLLIYWASTRESGVPDRFTGSGSGTDFTLTISSVQAEDLAVYYCKQSYNLRTFGGGTKLEIKR"
,binds,binds,no binding,"M-hCRAC1415-15F45A1 (antibody, IgG1, V domains shown, same variable domains as 17F6A2) VH: QVQLQQSGAELVRPGSSVKISCKASGYAFSSYWMNWVKQRPGQGLEWIGHIYPGDADTNYNGKFKGKATLTADKSSSTAYMHLSSLTSEDSAVYFCSRQLGFRYAMDYWGQGTSVTVSS VL: DIVMSQSPSSLAVSAGEKVTMSCKSSQSLLNSRTRKNYLAWYQQKPGQSPKLLIYWASTRESGVPDRFTGSGSGTDFTLTISSVQAEDLAVYYCKQSYNLRTFGGGTKLEIKR"
,binds,binds,no binding,"M-hCRAC1415-17F1A4B6 (antibody, IgG1, V domains shown, same variable domains as 17F6A2) VH: QVQLQQSGAELVRPGSSVKISCKASGYAFSSYWMNWVKQRPGQGLEWIGHIYPGDADTNYNGKFKGKATLTADKSSSTAYMHLSSLTSEDSAVYFCSRQLGFRYAMDYWGQGTSVTVSS VL: DIVMSQSPSSLAVSAGEKVTMSCKSSQSLLNSRTRKNYLAWYQQKPGQSPKLLIYWASTRESGVPDRFTGSGSGTDFTLTISSVQAEDLAVYYCKQSYNLRTFGGGTKLEIKR"
,binds,binds,no binding,"M-hCRAC1415-17F6A2 (antibody, mouse IgG1, V domains shown, Mouse monoclonal, kappa light chain; also called Anti-M-CRAC1415-17F6A2) VH: QVQLQQSGAELVRPGSSVKISCKASGYAFSSYWMNWVKQRPGQGLEWIGHIYPGDADTNYNGKFKGKATLTADKSSSTAYMHLSSLTSEDSAVYFCSRQLGFRYAMDYWGQGTSVTVSS VL: DIVMSQSPSSLAVSAGEKVTMSCKSSQSLLNSRTRKNYLAWYQQKPGQSPKLLIYWASTRESGVPDRFTGSGSGTDFTLTISSVQAEDLAVYYCKQSYNLRTFGGGTKLEIKR"
,binds,binds,no binding,"M-hCRAC1415-14F74A1 (antibody, mouse IgG1, V domains shown, Mouse monoclonal, kappa light chain; also called Anti-M-CRAC1415-14F74A1) VH: QVQLQQSGAELVRPGSSVKISCKASGYAFSSYWMNWVKQRPGQGLEWIGHIYPGDGDTNYNGKFKGKATLTADKSSSTAYMQLSGLTSEDSAVYFCARSGRLRFAMDYWGQGTSVTVSS VL: DIVMSQSPSSLAVSAGEKVTMSCKSSQSLLNSRTRKNYLAWYQQKPGQSPKLLIYWASTRESGVPDRFTGSGSGTDFTLTISSVQAEDLAVYYCKQSYNLRTFGGGTKLEIQR"
